# Laboratory results from US20140148355A1, “COMPOSITIONS AND METHODS FOR ANALYSIS OF H3K4 METHYLATED CHROMATIN” (UNIVERSITY OF OSLO, priority 2011, published 2014).
# B1: GST-ZCWPW1-CW: human ZCWPW1 CW domain (nt 714-942, from HEK293 cDNA) as GST fusion protein (protein)
# chain: IRDQQKGEISGFGQCLVWVQCSFPNCGKWRRLCGNIDPSVLPDNWSCDQNTDVQYNRCDIPEETWTGLESDVAYAS
# modifications: left off: a dimerising Fc or GST
# notes: human ZCWPW1 CW domain (nt 714-942, from HEK293 cDNA) as GST fusion protein
# B2: GST-ASHH2-CW: Arabidopsis ASHH2 CW domain (nt 2547-2811) expressed and purified as a GST-fusion protein from bacteria (protein)
# chain: VVDVTIEDSYSTESAWVRCDDCFKWRRIPASVVGSIDESSRWICMNNSDKRFADCSKSQEMSNEEINEELGIGQDEADAYDCDAAKRG
# modifications: left off: a dimerising Fc or GST
# notes: Arabidopsis ASHH2 CW domain (nt 2547-2811) expressed and purified as a GST-fusion protein from bacteria
# B3: W865A: GST-ASHH2-CW mutant, tryptophan 865 to alanine (protein)
# chain: MVVDVTIEDSYSTESAAVRCDDCFKWRRIPASVVGSIDESSRWICMNNSDKRFADCSKSQEMSNEEINEELGIGQDEADAYDCDAAKRG
# modifications: left off: a dimerising Fc or GST; large carriers; small tags and cut ends
# notes: GST-ASHH2-CW mutant, tryptophan 865 to alanine
# B4: GST-Val1-CW: Arabidopsis VAL1 CW domain (nt 1575-1797) as GST fusion protein (protein)
# chain: VFGKRTIVTTKPSGEQERWATCDDCSKWRRLPVDALLSFKWTCIDNVWDVSRCSCSAPEESLKELENVLKVGRE
# modifications: left off: a dimerising Fc or GST
# notes: Arabidopsis VAL1 CW domain (nt 1575-1797) as GST fusion protein
# B5: GST-MORC4-CW: human MORC4 CW domain (nt 1236-1422, from HEK293 cDNA) as GST fusion protein (protein)
# chain: TVARPIPKVPDQTWVQCDECLKWRKLPGKIDPSMLPARWFCYYNSHPKYRRCSVPEEQELTD
# modifications: also: GST fusion partner not part of the given chain
# notes: human MORC4 CW domain (nt 1236-1422, from HEK293 cDNA) as GST fusion protein
# How the values were obtained:
# [1] = molecular target: T1, methylated H3K4 peptides (panel of biotinylated histone tail peptides) (Homo sapiens, UniProt P68431); test: Histone peptide binding (pull-down) assay with biotinylated histone peptides; conditions: for preference for methylation state of H3K4 peptides: pull-down with biotinylated histone peptides, anti-GST immunoblot
# T1 construct: purchased Upstate Biotechnology
# Procedure: (§1) FIG. 3 The ASHH2 CW domain binds histone H3 tails methylation on lysine 4. (A) Cartoon of the ASHH2 protein with CW, AWS and KMT (SET domain) indicated. The two recombinant proteins used in this study are also illustrated. (B) SDS-PAGE of purified GST and GST-ASHH2-CW. (C) Pull-down assay using biotinylated histone peptides and recombinant GST, GST-ASHH2-CW and GST-ING2-PHD as indicated. The ratio of proteins and peptides were 0.5 μg:0.5 μg. (D) Pull-down assay using biotinylated histone peptides and recombinant GST and GST-ASHH2-CW as indicated. The ratio of proteins and peptides were 1.0 μg:0.5 μg. (E) Surface plasmon resonance traces from an experiment with immobilised, biotinylated H3K4me1 peptide and GST-ASHH2-CW. (F) Dissociation constants for GST-ASHH2-CW and the three H3K4me peptides indicated calculated from surface plasmon resonance data. The number of replicates are indicated.
# (§2) FIG. 4 CW domains from four different proteins bind methylated H3K4 peptides. (A) Cartoons of the proteins studied: human MORC4, Arabidopsis VAL1, and human ZCWPW1. (B, C) Pull-down assay using biotinylated histone peptides and (B) recombinant GST, GST-Val1-CW and GST-MORC4-CW or (C) GST, GST-ASHH2-CW, and GST-ZCWPW1-CW, as indicated. The ratio of proteins and peptides were equimolar.
# (§3) FIG. 7 Probing the predicted histone tail binding site with mutant CW domains. […] The predicted binding site for the histone tail is indicated as in FIG. 6D. (B and C) Pull-down assays using biotinylated histone peptides and recombinant GST and GST-ASHH2-CW mutant proteins as indicated. The ratio of proteins and peptides were 1.0 μg:0.5 μg.
# (§4) Histone peptide binding assays were performed as described by Shi et al (2006) with biotinylated histone peptides from Upstate Biotechnology. The protein-peptide ratio used is indicated in the legends to the figures. Bound proteins were visualized by immunoblotting using rabbit anti-GST antibodies Z-5 (SC-456) from Santa Cruz at a 1:20,000 dilution, and a donkey anti-rabbit HRP conjugate (Amersham NA934) at a 1:10,000 dilution.
# [2] = molecular target: biotinylated H3 peptide monomethylated on lysine 4 (H3K4me1) (Homo sapiens, UniProt P68431); test: Surface plasmon resonance (BIAcore T100) binding to immobilised H3K4me1 peptide; conditions: GST-tagged protein 0.1 μM to 10 μM, HBS-P buffer
# Procedure: (§5) Surface plasmon resonance binding assays were performed on a BIAcore T100 biosensor according to the manufacturers protocols using immobilized, biotinylated H3 peptides monomethylated (0.54 ng), dimethylated (0.24 ng), or trimethylated (0.48 ng) on lysine 4. GST-tagged ASHH2 CW protein in five different concentrations in a range from 0.1 μM to 10 μM was injected for 2 min at a flow rate of 10 μl/min. Each sample injection was followed by injection of HBS-P buffer (10 mM HEPES pH 7; 150 mM NaCl) alone for 5 min at a flow rate of 5 μl/min. Kd values were obtained using the Biacore T100 Evaluation software 2.0.1. Measurements were repeated 2 to 5 times.
# [3] = molecular target: biotinylated H3 peptide dimethylated on lysine 4 (H3K4me2) (Homo sapiens, UniProt P68431); test: Surface plasmon resonance (BIAcore T100) binding to immobilised H3K4me2 peptide; conditions: GST-tagged protein 0.1 μM to 10 μM, HBS-P buffer
# Procedure: as §5
# [4] = molecular target: biotinylated H3 peptide trimethylated on lysine 4 (H3K4me3) (Homo sapiens, UniProt P68431); test: Surface plasmon resonance (BIAcore T100) binding to immobilised H3K4me3 peptide; conditions: GST-tagged protein 0.1 μM to 10 μM, HBS-P buffer
# Procedure: as §5
# [5] = test system: methylated H3K4 peptides (panel of biotinylated histone tail peptides); test: Histone peptide binding (pull-down) assay with biotinylated histone peptides; conditions: panel incl. trimethylated H3K27 and H3K36 peptides
# Procedure: as §1, §2, §3, §4
# H3K4me3 peptide = molecular target: T2, H3K4me3 peptide (Homo sapiens, UniProt P68431); test: Histone peptide binding (pull-down) assay, H3K4me3 peptide; conditions: protein:peptide 0.5 μg:0.5 μg
# T2 construct: purchased Upstate Biotechnology
# Procedure: as §1, §4
# [6] = molecular target: T3, three methylated forms of H3K27-peptides (Homo sapiens, UniProt P68431); test: Histone peptide binding (pull-down) assay, methylated H3K27 peptides; conditions: protein:peptide 1.0 μg:0.5 μg
# T3 construct: purchased Upstate Biotechnology
# Procedure: as §1, §4
# [7] = test system: H3K4me1 in Arabidopsis chromatin; test: Chromatin pulldown (ChPD), western blot quantification, H3K4me1; type: binding; conditions: chromatin from Arabidopsis seedlings, anti-H3K4me1 western blot
# Source text: (§6) FIG. 8 Chromatin pulldown (ChPD) using the ASHH2 CW. […] Modified histones were visualised by western blot using antibodies as indicated. Molecular size markers are shown to the right. (B) qPCR with primers for assumed ASHH2 target genes on DNA isolated from seedling chromatin pulled down with GST-CWASHH2. ChPD with GST alone was used as a negative control. Data are shown as percent of input. The Ta3 retrotransposon was used as reference. Standard deviations are shown. (C) ChIP using antibodies against H3K4me1, H3K4me3 and H3K36me3 and primers for the same genes as in (B). Data are shown relative to Ta3. (D) ChPD from wt and ashh2 mutant seedlings as in (A) using antibodies as indicated. ChPD with GST alone was used as a negative control and histone H3 as reference.
# (§7) Chromatin pull-down (ChPD) was performed using crude chromatin in ChIP dilution buffer (1.1% Triton X-100, 1.2 mM EDTA, 16.7 mM Tris-HCL pH 8, 167 mM NaCl) prepared as for ChIP (Gendrel et al., 2005) incubated with 8 μg GST-CW fusion protein and control proteins (only GST alone, or together with GST-CW-W874A and GST-WIYLD) over night. For western blotting, the pulled down chromatin was washed three times in ChIP dilution buffer, run on a 15% SDS-PAGE and blotted onto a PVDF membrane. […]
# [8] = test system: H3K4me2 in Arabidopsis chromatin; test: Chromatin pulldown (ChPD), western blot quantification, H3K4me2; type: binding; conditions: chromatin from Arabidopsis seedlings, anti-H3K4me2 western blot
# Source text: as §6, §7
# [9] = test system: H3K4 methylated chromatin; test: Chromatin pulldown (ChPD) with western blot detection; type: binding; conditions: antibodies against each of the three H3K4 methylation states; Arabidopsis seedling chromatin
# Source text: as §6, §7
# [10] = test system: chromatin associated with genes regulated by ASHH2; test: Chromatin pulldown (ChPD) followed by qPCR on ASHH2 target genes; type: binding, Arabidopsis; conditions: seedling chromatin; GST alone as negative control
# Source text: as §6, §7
molecule,measurement,setting,value
B1,preference for methylation state of H3K4 peptides,[1],clear preference for H3 Kme2 and me3 peptides
B2,Kd,[2],1150 nM
same,Kd,[3],2100 nM
same,Kd,[4],4000 nM
same,preference for methylation state of H3K4 peptides,[1],preference for mono- and dimethylated H3K4 peptides
same,sequence selectivity on histone peptide panel,[5],only binds the methylated H3K4 peptides
same,binding to the H3K4me3 peptide,H3K4me3 peptide,close to background levels
same,binding to methylated H3K27-peptides,[6],no binding was observed
same,bound H3K4me1 chromatin relative to input chromatin,[7],4.4 times of input material (2.5%)
same,bound H3K4me2 chromatin relative to input chromatin,[8],3.3 times of input material (2.5%)
same,pull down of H3K4 methylated chromatin (western blot signal),[9],Strong signals
same,binding of chromatin associated with ASHH2-regulated genes (real-time PCR),[10],significantly above background levels
B3,histone tail binding of mutant ASHH2 CW domains,"[1]; pull-down, protein:peptide 1.0 μg:0.5 μg",abolished histone tail binding
B4,preference for methylation state of H3K4 peptides,[1]; listed as VAL1,strongest preference for K4me3
same,preference for methylation state of H3K4 peptides,[1]; listed as VAL1 CW,clear preference for H3 Kme2 and me3 peptides
B5,preference for methylation state of H3K4 peptides,[1],preference for H3K4me2
